B1: CPEB3 Ribozyme (parent)
chain: GGGGGCCACAGCAGAAGCGUUCACGUCGCGGCCCCUGUCAGAUUCUGGUGAAUCUGCGAAUUCUGCUGU

The variants in the data set derive from B1. Put plainly: self-cleavage, relative activity (ratio to wild type); higher = more cleavage; co-transcriptional.
As for C39U A52G, the self-cleavage amounted to 0.948.
In the case of C39U A52C, the self-cleavage worked out at 0.776.
Consider C39U A52U, for which the self-cleavage stood at 0.78.
As for C39G U46A, the self-cleavage amounted to 0.997.
The result for C39G U46G reads 0.907.
For C39A U49A, the self-cleavage was 0.902.
Consider C39G C45A, for which the self-cleavage amounted to 0.787.
In the case of C39G C45G, the self-cleavage worked out at 0.828.
Under C39G C45U stands 0.938; under A40C U43C, 0.314.
As for A40C U43G, the self-cleavage worked out at 0.281.
As to A40C U43A, the self-cleavage came to 0.356.
With C39U A42C, the self-cleavage was determined as 0.542.
C39U A42G: the self-cleavage was determined as 0.514.
C39G G68C: the self-cleavage came to 0.955.
Under C39G G68A stands 0.95; under C39A A42G, 0.35; under C39A A42C, 0.476.
C39G U53G: the self-cleavage amounted to 0.533.
As to C39G U53C, the self-cleavage was 0.516.
Take C39G U53A: the self-cleavage came to 0.538.
The result for C39G A59U reads 0.587; that for C39G A59C, 0.488.
Turning to A40C C66A, the self-cleavage came out at 0.232.
As for A40C C66U, the self-cleavage amounted to 0.443.
The result for A40C C66G reads 0.36; that for C39U U43C, 0.687.
As for C39G C54G, the self-cleavage is 0.625.
Under C39G C54U stands 0.888; under C39G C54A, 0.561; under C39U A51U, 0.836.
In the case of C39A G65U, the self-cleavage was 0.397.
Take C39A G65C: the self-cleavage worked out at 0.361.
In the case of C39A G65A, the self-cleavage came out at 0.478.
For A40C G56A, the self-cleavage was 0.546.
For the variant A40C G56U, the self-cleavage was 0.401.
A40C G56C: the self-cleavage is 0.341.
The result for A40C G50U reads 0.55.
As to A40C A42C, the self-cleavage came to 0.26.
On to A40C A42G, for which the self-cleavage came to 0.482.
With A40C A42U, the self-cleavage is 0.363.
As to C39A U53G, the self-cleavage amounted to 0.351.
C39A U53C: the self-cleavage amounted to 0.37.
C39A U53A: the self-cleavage is 0.447.
As for C39U C63A, the self-cleavage was 0.54.
Turning to C39U C63U, the self-cleavage is 0.84.
As for C39U C63G, the self-cleavage came to 0.451.
Take A40C U64A: the self-cleavage worked out at 0.357.
The result for A40C G48U reads 0.884.
As for U38G U43A, the self-cleavage worked out at 0.247.
The result for U38G U43G reads 0.213.
As to U38G U43C, the self-cleavage was 0.161.
Consider C39U U49G, for which the self-cleavage stood at 0.975.
Turning to C39U U49A, the self-cleavage was 0.971.
In the case of U38G C63A, the self-cleavage came out at 0.155.
A40G A59C: the self-cleavage is 0.568.
For A40G A59G, the self-cleavage turned out to be 0.935.
C39A G47U: the self-cleavage was 0.919.
Turning to C39A G47A, the self-cleavage is 0.949.
Regarding C39G, the self-cleavage came out at 0.967.
The result for C39U reads 0.954.
As for C39A, the self-cleavage came out at 0.903.
C39G G65A: the self-cleavage was 0.599.
Under U38G U64A stands 0.163.
On to U38G U64C, for which the self-cleavage was 0.235.
U38G U64G: the self-cleavage turned out to be 0.25.
For the variant C39G G56C, the self-cleavage is 0.938.
On to C39G G56U, for which the self-cleavage was 1.
Regarding C39G G56A, the self-cleavage turned out to be 0.882.
For the variant C39U C54A, the self-cleavage was found to be 0.526.
As for C39U C54U, the self-cleavage was 0.853.
Regarding C39U C54G, the self-cleavage was 0.546.
Regarding U38G A59C, the self-cleavage worked out at 0.232.
On to U38G A59G, for which the self-cleavage amounted to 0.132.
Take U38G G68A: the self-cleavage is 0.259.
Consider U38G C39A, for which the self-cleavage is 0.8.
Under A40C A51G stands 0.494.
The result for A40C A51U reads 0.324.
C39U U53C: the self-cleavage is 0.382.
For the variant C39U U53G, the self-cleavage is 0.61.
As for C39U C66A, the self-cleavage worked out at 0.541.
C39U C66U: the self-cleavage was 0.885.
The result for U38G G58C reads 0.236; that for U38G G58A, 0.257; that for C39A A40U, 0.475.
Consider C39A A40C, for which the self-cleavage stood at 0.835.
For C39A A40G, the self-cleavage stood at 0.841.
Turning to U38G A51C, the self-cleavage was found to be 0.293.
For C39A G58U, the self-cleavage was determined as 0.948.
As to C39A G58A, the self-cleavage worked out at 0.625.
As for C39U U64G, the self-cleavage is 0.733.
On to C39U U64C, for which the self-cleavage came to 0.699.
Under C39G A40U stands 0.644; under C39G A40C, 0.606; under C39A U55G, 0.808.
Under C39A U55C stands 0.736.
The result for U38G U67A reads 0.295; that for U38G U67C, 0.302; that for U38G U67G, 0.273.
For the variant C39U G56A, the self-cleavage was determined as 1.
Turning to C39U G56C, the self-cleavage was determined as 0.887.
Under C39G G58U stands 1.01; under C39G G58A, 0.864; under C39G U67C, 0.93.
Under A40C C45U stands 0.497.
As for A40C C45A, the self-cleavage was 0.534.
In the case of A40C C45G, the self-cleavage stood at 0.531.
With C39U U44A, the self-cleavage worked out at 0.517.
The result for C39U C57U reads 0.37; that for C39A U61G, 0.402; that for C39A U61C, 0.328.
In the case of U38G G47A, the self-cleavage was 0.272.
Under U38G G47U stands 0.219; under A40C A52G, 0.583.
Under U38C U44C stands 0.856; under U38C U44A, 0.891; under C39G G48A, 0.957.
The result for C39G G48U reads 0.966; that for U38G U44G, 0.346; that for U38G U44C, 0.273.
In the case of C39U U61A, the self-cleavage stood at 0.766.
With C39U U61C, the self-cleavage came out at 0.435.
For C39G U64C, the self-cleavage turned out to be 0.736.
As to C39G U64G, the self-cleavage amounted to 0.642.
Consider U38G C45A, for which the self-cleavage came out at 0.286.
The result for U38G C45U reads 0.28; that for C39U U46G, 0.997; that for C39U U46C, 0.822.
In the case of C39A G68C, the self-cleavage was determined as 0.932.
C39A G68U: the self-cleavage came out at 0.976.
The result for U38G U62C reads 0.261; that for C39G A42U, 0.725.
Regarding C39G A42G, the self-cleavage was 0.739.
As for C39G A42C, the self-cleavage came out at 0.553.
On to C39G U44A, for which the self-cleavage turned out to be 0.772.
Under C39G U44C stands 0.58.
For C39G U44G, the self-cleavage worked out at 0.709.
As to C39A C66U, the self-cleavage is 0.828.
Under C39A C66A stands 0.435; under A40C U62C, 0.255; under A40C U62G, 0.352.
The result for A40C U62A reads 0.385.
For C39U A59G, the self-cleavage is 0.987.
As for U38C U67C, the self-cleavage came to 0.949.
For the variant U38C U67A, the self-cleavage stood at 0.931.
Consider U38C U49G, for which the self-cleavage turned out to be 0.916.
U38C U49C: the self-cleavage amounted to 0.999.
As to C39A A51G, the self-cleavage worked out at 0.802.
Turning to C39A A51C, the self-cleavage worked out at 0.654.
For C39U G58U, the self-cleavage was 0.961.
C39U G58A: the self-cleavage was found to be 0.873.
On to C39U G58C, for which the self-cleavage turned out to be 0.946.
Regarding A40C G41C, the self-cleavage is 0.324.
In the case of A40C G41A, the self-cleavage was found to be 0.333.
Take U38G U49A: the self-cleavage was determined as 0.178.
In the case of U38G U49C, the self-cleavage came out at 0.231.
For U38G U49G, the self-cleavage was 0.264.
For C39U U55G, the self-cleavage was 0.661.
The result for A40C U61C reads 0.339; that for A40C U61A, 0.304; that for A40C U61G, 0.192.
C39G U43G: the self-cleavage was determined as 0.448.
Consider C39G U43A, for which the self-cleavage was 0.522.
Take U38G G56U: the self-cleavage was 0.672.
On to U38G G56C, for which the self-cleavage amounted to 0.237.
The result for U38G G56A reads 0.722; that for C39U G47C, 0.957.

Values taken from the RNAGym collection of RNA variant scans (doi:10.7554/elife.80360).
